# Reference: the nanobody polyreactivity screen of Harvey et al. (2022)
# Experiment: yeast display, Sf9 membrane polyspecificity reagent, FACS + sequencing; frameworks hold sequencing errors
# Summary of the method: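 Using colony PCR, genes from sorted yeast display clones were amplified, then sequenced on MiSeq at 2 × 250 and filtered by CDR length. The clones had been stained with 10% biotinylated, detergent-solubilized Sf9 membrane reagent for 1 hour at 4 °C and sorted by FACS into low and high (top ~1%) gates on anti-HA and streptavidin fluorescence. Polyreactivity labels come from the gate of origin.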
row,Sequence,polyreactivity (PSR sort gate)
1,QVQLVESGGGLVQAGGSIRLSCAASGRIFGAYAIGWYRQAPGKERELVADIRTTGSTNYADSVKGRFTISRDNAKNTVYLQMNSLKPEDTAVYYCAARWRSRRFGSGFEYWGQGTQVTVSS,high polyreactivity
2,QVQLVESGGGLVQAGGSIRLSCAASGRTFARNAMGWYRKAPGKERELVAAISSSGGSTYYADSVKGRFTISRDNAKNTVYLQMNSLKPEDTAVYYCARYSSFTYDYWGQGTQVTVSS,high polyreactivity
3,QVQLVESGGGLVQAGGSIRLSCAASGRTFIYNVMGWYRQAPGKERELVAAISSGGNTNYADSVKGRFTISRDNAKNTVYLQMNSLKPEDPAVYYCNARWPLGVSRGGMGYWGQGTQVTVSS,high polyreactivity
4,QVQLVESGGGLVQAGGSIRLSCAASGRTFNYYAMGWYRQAPGKERELVAAIDSDGNTYYADSVKGRFTISRDNAKNTVYLQMNSLKPDDTAVYYCAADTHVNPNYDYWGQGTQVTVSS,low polyreactivity
5,QVQLVESGGGLVQAGGSIRLSCAASGSIFYHNAMGWYRPAPGKERELVAAITWSGSTTYYADSVKGRFTISRDNGKNTVYLQMNSLKPEDTAVYYCNAGNRHGHYDYWGQGTQVTVSS,low polyreactivity
6,QVQLVESGGGLVQAGGSIRLSCAASGSIYKYNAMGWYRQAPGKERELVAAISSGGSTNYADSVKGRFTISRDNAKNTVYLQMNSLKPEDTAVYYCAKDRRRWYYTRDYWGQGTQVTVSS,low polyreactivity
7,QVQLVESGGGLVQAGGSIRLSCAASGSIYPFYSMGWYRQATGKEMELVAAISDSGGDTYYADSVKGRFTISRDNAKNTVYLQMNSLKPEDTAVYYCAADWFYNSFNYWGQGTQVTVSS,low polyreactivity
8,QVQLVESGGGLVQAGGSIRLSCAASGSTFPGNAMGWYRQAPGKERELVASISGGGDSTYYADSVKGRFTISRDNAKNTVYLQMNSLKPEDTAVYYCAADTQGSVRPGYDYWGQGTQVTVSS,low polyreactivity
9,QVQLVESGGGLVQAGGSIRLSCSASGSTFNIYAMGWYRKAPGKERELVAAISGNGDRTYYADSVKGRFTISRDNAKNTVYLQMTSLKPEDTAVYYCAAKYYGWGQGTQVTVSS,high polyreactivity
10,QVQLVESGGGLVQAGGSIRLSSAASGLIFLGDPMGWYRQAPGKERELVASIRTGRSTSYADSVKGRFTFSRDNAKYTVYLQMNSLKPEDTAVYYCAADRGRPNLPGDYWGQGSQVTVSS,low polyreactivity
11,QVQLVESGGGLVQAGGSIRLTCAASGLIFLVYPMGWYRPAPGKERELVASIRTGRSTSYADSVKGRFTISRDNAKYTVYLQMNSLKPEDTAVYYCAADRGRPNLPGDYWGQGTQVTVSS,low polyreactivity
12,QVQLVESGGGLVQAGGSISLSCAASGRIFPTNDMGWYRQAPGKERELVASIDSVGSTKYADSVKGRFTISRDNAKNTVYLQMNSLKPEDTAVYYRALQVLNYDYWGQGTQVTVSS,low polyreactivity
13,QVQLVESGGGLVQAGGSLCLSCAASGITFLFYAMGWYRQAPGKERELVAAITYSGGSTYYADSVKGRFTISRDNAKNTVYLQMNSLKPEDTAVYYCAADVWWSYYRYDYWGQGTQVTVSS,low polyreactivity
14,QVQLVESGGGLVQAGGSLCLSCAASGSTLRRYAMGWYRQAPGKERELVAAITYRSGSTYYADSVKGRFTISRDNAKNTVYLQMNSLKPEDTAVYYCAKVGYVSKYWFAGDYWGQGTQVTVSS,high polyreactivity
15,QVQLVESGGGLVQAGGSLGLSCAASGFIFVRYAMGWYRQATGKERELVGAITSTGSTYYADSVKGRFTISRDKAKNTVYLQMNSLKPEDTAVYYCAAVSRTSITFGYYAEYDYWGQGTQVTVSS,low polyreactivity
16,QVQLVESGGGLVQAGGSLGLSCAASGRMFGYYTLGWYRQAPGKERELVAAITSSGGRTYYADSVKGRFTISRDYAKNTVYLQMNSLKPEDTAVYYCAADVEWTSRGSYYRYYYWGQGTQVTVSS,low polyreactivity
17,QVQLVESGGGLVQAGGSLGLSCAASGRTFGFYAMGWYRQATGKQRELVAAITSTGGSTYYADSVKGRFTISRDNAKNTVYLQMNSLKPEDNAVYYCAADSGTKRYYYWGQGTPVTVSS,high polyreactivity
18,QVQLVESGGGLVQAGGSLGLSCAASGSTFHLYAMGWYRQAPGKEREFVAAIRGRGGNTYADSVKGRFTISRDNAKNTVSLQMNSLKPEDTAVYYCAAPLLRVLRSPYSYNYWGQGTQVTVSS,low polyreactivity
19,QVQLVESGGGLVQAGGSLGLSCAATGSTIPYNAMGWYRQAPGKERELVAAINSAGGTNYADSVKGRFTISRDNAKNTVYLQMNSRKPEDTAVYYCAADGSGYYDWYYYWGQGTQVTVSS,low polyreactivity
20,QVQLVESGGGLVQAGGSLGLTCAASGFILAQNAMGWYRQAPGKERELVAAISRRGGRTSYADSVKGRFTISRDYAKNTVYLQMNSLKPEDTAVYYCAALPPRASSDAGGWYVAEDYWGQGTQVTVSS,high polyreactivity
21,QVQLVESGGGLVQAGGSLLISCAASGRTLDFNVMGWYRQAPGKERELVAAITWSGGSTYYADSVKGRFTISRDNAKNTVYLQMNSLKPEDTAVYYCAKDRWYWARRYDYWGQGTQVTVSS,high polyreactivity
22,QVQLVESGGGLVQAGGSLLLICAASGLTFYAKVMGWYRQAPGKERELVASISRSGGRTYYADSVKGSFTISRDNAKNTVYLQMNSLKPEDTAVYYSAAADQVGQEDDYWGQGSQVTVSS,low polyreactivity

row,Sequence,polyreactivity (PSR sort gate)
1,QVQLVESGGGLVQAGGSLLLICAASGSIFYFYTMGWYRQAPGKERELVASITYSGGRTYYADSVKWSFTMSRDNAKHTVYLQMNSLKPEDPPVDYCAVRGYRRYWGQGTQVTVSS,high polyreactivity
2,QVQLVESGGGLVQAGGSLLLSCAASGFNFTYYTMGWYRQAPGKERELVAAISYSGGSTYYAESVKGRFTISRDNAKNSVYLQMNSLKPEDTAVYYCAVRVSDKYISKRFEYWGQGTEVTVSS,high polyreactivity
3,QVQLVESGGGLVQAGGSLLLSCAASGITFGDNAMGWYRQAPGKERELVAAISSGGSTDYADSVNGRFTISRDNAKNTVYLQMNSLKPEDTAVYYCAVDWVSVPEYDYWGQGTQVTVSS,low polyreactivity
4,QVQLVESGGGLVQAGGSLLLSCAASGLIFSWNAMGWYRQAPGKERELVASISYSGGRTYYADSVKGRFTISRDNAKNTVYLQMNSLKPEDTAVYYCAADTNATTDPEMDYWGQGTQVTVSS,low polyreactivity
5,QVQLVESGGGLVQAGGSLLLSCAASGNTFVNNAMGWYRQAPGKERELVAAISRRGGTTYYADSVKGRFTISRDNAKNTVYLKMKSLKPEDTAVYYCAKYGYAFDSWGQGTQVTVSS,high polyreactivity
6,QVQLVESGGGLVQAGGSLLLSCAASGRIFAYYAMGWYRQAPGKERELVAGISQRGSRTYYADSVKGRFTISRDNAKNTVYLQMNSLKPEDTAVYYCAARDRRSVTMDYWGQGTQVTVSS,high polyreactivity
7,QVQLVESGGGLVQAGGSLLLSCAASGRIFRPYAMGWYRQAPGKERELVAAISSSGGSTYYADSVKGRFTISRDNAKNTVYLEMNSLKPEDTAVYYCAARITQISYGSEIEHPYYYWGQGTQVTVSS,high polyreactivity
8,QVQLVESGGGLVQAGGSLLLSCAASGRILDFYDMGWYRQAPGKERELVAAITNSASTYYADSVKGRFTISRDNAKNTVYLQMNRLKPEDTAVYYCNADLYRGAYYGTYWSDWGYDYWGQGTQVTVSS,low polyreactivity
9,QVQLVESGGGLVQAGGSLLLSCAASGSIFGSNAMGWYTQATVKERELVAVITNGGRTYYADSVKGLFTISRDNAKNTVYLQMNSLKPEDTAVYYCAASRVYGWYGSYSTYGSVGQGTQVTVSS,high polyreactivity
10,QVQLVESGGGLVQAGGSLLLSCAASGSIFGWYAMGWYRQAPGKERELVAAISSSDGSTYYADSVKGRFTISRDNPKNTVYLQMNSLKPEDTAVYYCATDSAFTYAQYDYWGQGTQVTVSS,low polyreactivity
11,QVQLVESGGGLVQAGGSLLLSCAASGTTFDRNAMGGYRQAPGKEREIVDAIRFGGGSTNYADSVKGRFTISRDNAKNTVYLLMNSLKPEDTAVYYCNAERIWRYKYGYDYWGQGTQVTVSS,high polyreactivity
12,QVQLVESGGGLVQAGGSLLLSCDASGGTLDYYVMGWYRQAPGKERELVAAISSSGGSTYYADSVKGRFTISRDNAKNTVYLQMNCLNPEDTAVYYCAGDPSPYGDEYDYWVQGTQVTVSS,low polyreactivity
13,QVQLVESGGGLVQAGGSLLLSCSASGRIFGVNAMGGYRQAPGKERELVAAISAGGGNTYYADSVKGRFTISRDNAKNTVYLQMNSLKPEDTAVYYCNVQRSLRMDYWGQGTQVTVSS,high polyreactivity
14,QVQLVESGGGLVQAGGSLLLSCSASGRTFAYNAMGLYRQAPGKEREWVASISSSDTSTYYADSVNGRFTISRDNAKNTVYLQMNSLKPVDTAVYYCAADGHPFKGVRYYYWGQGTQVTVSS,low polyreactivity
15,QVQLVESGGGLVQAGGSLLLTCAASSSTFRPKVMGWYRQAPGKERELVAAISNGGRTYYADSLKGRFTISRDNAKNTVYLQMNSLKPEDTAVYYCAARGKTTKYNYWGQGTQVTVSS,high polyreactivity
16,QVQLVESGGGLVQAGGSLPLRCPASGSIFYQYAMGWYRQAPGKVRELVARIRGSTGTTYYADSVKGRFTISRDNAKNTVYLHMNSLKPEDTAVYYCNAARYQGRSRFDYWGQGSQVTVSS,high polyreactivity
17,QVQLVESGGGLVQAGGSLPLSCAASGITLYGYAMGWNRQAPGNERELVPAISRSGSSTYYADSVKGRFTISRDNAKNTVYLQMNILKPEDTAVYYCNVYSGRYWESHKFDSWGQGTQVTVSS,high polyreactivity
18,QVQLVESGGGLVQAGGSLPLSCAASGNIFVTYDMGWYRQAPGKERELVASISWNGGSTNYADSVRGLFTISRDNAKNTVYLQMNSLKPEDTAVYYCAAEYWTSYADYRYDYWGQGTQVTVSS,low polyreactivity
19,QVQLVESGGGLVQAGGSLPLSCAASGRIFNGYAMGGYIQAPGKERELVAAICWRGGRTYYADSVKGRFTISRDNAMNTVYLQRNSLKAEDTAVYYCNKDLPPQGQLRNMYYWGQGTIVTVSS,high polyreactivity
20,QVQLVESGGGLVQAGGSLPLSCAASGRIFNYYTMGWYRPAPGKERELVAAISTRGGRTYYADSVKGRFTISRDNAKNSVYFQMNSLKPEDTAVYYCARDIRIRIVYDGIYNYWGQGTQVTVSS,high polyreactivity
21,QVQLVESGGGLVQAGGSLPLSCAASGRIFYTYAMGWYRQAPGKERELVAAITYRGGSTYYADSVKGRFTISRDNAKNTVYLQMNILIPEDTAVYYCAARPGRGPDSRWRYKYDYWGQGTQVTVSS,high polyreactivity
